Measured values as given in the DeepSol protein solubility set.

Assay: soluble on expression in E. coli; label from the status in PepcDB or PDB records

Sequence | soluble on expression in E. coli
MEKNGYIDPYTTVMNYLSITPGKWEIKYNENIRGISGKEHRFDAVYRSQEGEIVTVMVVLRTEDLEKRLDDFKNGSKDVRAKRKFLIVCGEINSDMVSELKSENISILMLPGMFCSQVSSYNADAGSNDAPRSLPDGGIEESQRKRSRANIIMDLIRAINENSNQIPVTRLFYACNINHRMGRSIIEDLEHAGIVILRKTGPNRNVVELTRKGISLINDYEFIREILEK | not soluble
GSSSLIRRVISTAKAPGAIGPYSQAVLVDRTIYISGQIGMDPSSGQLVSGGVAEEAKQALKNMGEILKAAGCDFTNVVKTTVLLADINDFNTVNEIYKQYFKSNFPARAAYQVAALPKGSRIEIEAVAIQGPLTTASL | soluble
MAKDVKPTRKNLMQIEDRIELSERGHDTLEKKRDGLIMEFMDILDQAQDVREDLDGSYERAQRAINMARAMEGDVAVRGAAAALKEHPELTTQSKNIMGVVVPQIESSKVRKSLDERGYGVMGTSARIDEAAEAYEELLENIILAAEVETAMKKMLEEIETTKRRVNALEFKLLPDLYDNQEYIEQKLEEQEREEIFRMKKIKAKKEEEEDALAAEEEAEEEPEAVTADDAAALEHHHHHH | soluble
MESIVDKQAVKHFLLQLQDKICQQLEATDGQAQFIEDAWQREPGEKLGGGGRTRVMREGAVFEQGGVNFSHVFGEQMPASATAHRPELAGRRFEAMGVSLVMHPKNPYVPTSHANVRFFIAEKEGEAPIWWFGGGFDLTPFYPFVEDGQHWHQTAKNICAPFGSEIYNEHKAWCDRYFYLPHRNETRGIGGLFFDDLNEWSFEQCFAYMQAVGEGYTQAYVPIVEKRKNTPFTERERQFQLYRRGRYVEFNLVLDRGTLFGLQTGGRTESILMSMPPLARWEYAYQPQAGTPEAKLSEFLVPREW | not soluble
MAHHHHHHMNFLKRNATNICKGKVLGKHLNTSVQELTNLNKRKFSNIINLGKYGQRYQATHSGSIIGAKRFASGEAQKLSEVVKAEVQHEKSNYEAPDNIKKFLQTSGWKFEEQEGDVNMVLTKNVDGMKIIIDFQLVSPFQAEGENEAQAEMTDFSVTVEKPNKQGGITFYCTTLQNDEKFRYMIGNVKYYKNEEGKNSVSAYNGPEFEDLDDSLQTSLDEWLANLGVDSELCDFIDSCSIDKEQREYMSWLQNISNFIES | soluble
MASANSVIEGDLFKQKGASTFFNEGDINSSEGTIKHIYGLIIGTSNVSSSGTFATVNLTAGNKTGMTEFSLSNVLISDINSKSVPYTVTNATVLIDTAPVIDPICCPKSVDEKSKLAFKISAKDADGDRLTLSASGLPEGASFNRTSGAFAWTPAVGQTGVYTIAFKVSDGYLTDSENVTVTVNKLNNPPVIDFFEPINGSSFSEGERIGISVNATDAEKQALNYSIKIDGVMYSSDPAYIWETDYSSSGNHTIEVSVSDGIDEAKMQHSIYISECHPRYDVNEDGVVNILDITNVSREYETTVSKPYPRYDTNQDGEINILDLTLVGHHFGEKVELEHHHHHH | not soluble
MREYKLVVLGSGGVGKSALTVQFVQGIFVDEYDPTIEDSYRKQVEVDCQQCMLEILDTAGTEQFTAMRDLYMKNGQGFALVYSITAQSTFNDLQDLREQILRVKDTEDVPMILVGNKCDLEDERVVGKEQGQNLARQWCNCAFLESSAKSKINVNEIFYDLVRQINR | soluble
MTTTQDWIMIGGYGPESYNQQSSYQRALLEAAKDKMTEAISANLDLDLISNRFIVADFGCASGPNTFVAVQNIIDAVEEKYLRETGQNPEDNIEFQVLFNDLRINDFNTLFQTLPPGRRYFSAGVPGSFFNRVLPKQSFHIAVMSYAFLFTSKIPKGIMDRDSPLWNKDMQCTGFNPAVKKAYLEQYSIDTKNLLDARAEELMPGGLMLLLGSCMRDGVKMSETLKGTVMDFIGESLNDLAQKGVTEQEKVDTFKTSIYFAEQGEIRQIIEENGKFTIEAFEDIIHSKNEFPLDPKTLAISFKALYGAFISAHFGIEVMRKAFELVEVKAREQISRLHKVKPGMQYLIVLRKN | soluble
MIFEQGIEIKASATVVEQCFTDLDLMHLWLNPALRCEPIGQWSTAIGGRSRFTIQIPLLKPSLKSVVVERSPGLVVWQFKGFFQGQDRWECRPLEEGTYLLNRFEFTVPNPVVQWGFQMFAARWTSADMQAQLRRLKQVAEREYINSLEHHHHHH | not soluble
MGSDKIHHHHHHPSLTCVMEGKDIEDWSCCPTPWTSFQSSCYFISTGMQSWTKSQKNCSVMGADLVVINTREEQDFIIQNLKRNSSYFLGLSDPGGRRHWQWVDQTPYNENVTFWHSGEPNNLDERCAIINFRSSEEWGWNDIHCHVPQKSICKMKKIYI | not soluble
